Kd data for one molecule are collected here from article PMC6911355.

Data set [1] addresses TDP-43 102-269 (RRM1-RRM2) (human, UniProt Q13148 102-269). As to the kind of experiment: ALPHA.
Data set [2] deals with TDP-43 1-260 (NTD-RRM1-RRM2) (human, UniProt Q13148 1-260). Put plainly: ALPHA.
TDP-43 1-260 (NTD-RRM1-RRM2), sequence (Q13148 1-260): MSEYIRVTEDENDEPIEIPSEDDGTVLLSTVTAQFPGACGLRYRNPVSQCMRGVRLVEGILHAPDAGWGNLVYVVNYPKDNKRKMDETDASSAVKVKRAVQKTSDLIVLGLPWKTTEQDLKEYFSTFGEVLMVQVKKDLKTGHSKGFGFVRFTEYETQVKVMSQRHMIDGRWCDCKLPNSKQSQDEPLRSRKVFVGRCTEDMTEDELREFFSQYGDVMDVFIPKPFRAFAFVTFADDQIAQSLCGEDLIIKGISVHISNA

TDP-43 102-269 (RRM1-RRM2), sequence (Q13148 102-269): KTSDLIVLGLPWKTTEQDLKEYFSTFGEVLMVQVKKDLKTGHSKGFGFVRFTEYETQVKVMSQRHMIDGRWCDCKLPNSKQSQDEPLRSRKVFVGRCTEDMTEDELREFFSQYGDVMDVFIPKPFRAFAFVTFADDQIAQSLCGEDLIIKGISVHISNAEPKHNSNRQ

B1: (UG)6 (ssRNA)
RNA: UGUGUGUGUGUG
For the molecule B1, the Kd (as a rule, the equilibrium constant for the complex coming apart) in data set [1] is 730 ± 100 pM; in data set [2], 400 ± 40 pM.
